Assay results reported in patent publication US20250163169A1, “ANTIBODIES FOR PREVENTING THE CLEAVAGE OF CD95L BY METALLOPROTEASES” (INSTITUT NATIONAL DE LA SANTÉ ET DE LA RECHERCHE MÉDICALE, priority 2022, published 2025).

Legend:
[1] = tested on: CD95L-expressing leukemic T cell 1A12; assay: Expression level of membrane-bound CD95L on 1A12 cells by flow cytometry; type: cell-based; settings: 24 h, antibodies 10 pg/mL, GM6001 10 μM
Description: (§1) FIG. 2. Monoclonal antibodies targeting the Metalloprotease-Cleavage Sites of CD95L (MCSCs). […] Arrows represent putative cleavage site in CD95L sequence. […] Indicated peptides were injected in mice to generate monoclonal antibodies and three different hybridoma were selected regarding their ability to bind CD95L. […] B. Recombinant Ig-CD95L (100 ng) was pre-incubated for 15 min with indicated antibodies (100 pg/mL) and then treated for 1h with the indicated MMPs. The metalloprotease-cleaved fragment of Ig-CD95L (CD95L devoid of its released Ig domain of gp190) was monitored by immunoblotting. C. CD95L-expressing leukemic T cell 1A12 was incubated for 24 h with indicated antibodies ([…]) or the pan-MMP inhibitor GM6001 (10 μM) and the expression level of membrane-bound CD95L was assessed by flow cytometry. D. Supernatants were harvested from cells treated in C and the metalloprotease-cleaved CD95L was dosed by ELISA (Diaclone).

CD95L cleavage by MMP3 = assay: Cleavage of recombinant Ig-CD95L by MMP3 in vitro, cleaved fragment monitored by immunoblotting; type: biochemical, Homo sapiens; settings: Ig-CD95L 100 ng pre-incubated 15 min with antibody (100 pg/mL), then MMP 1 h
Sequence of CD95L cleavage by MMP3 (P48023 103-281 limits assumed): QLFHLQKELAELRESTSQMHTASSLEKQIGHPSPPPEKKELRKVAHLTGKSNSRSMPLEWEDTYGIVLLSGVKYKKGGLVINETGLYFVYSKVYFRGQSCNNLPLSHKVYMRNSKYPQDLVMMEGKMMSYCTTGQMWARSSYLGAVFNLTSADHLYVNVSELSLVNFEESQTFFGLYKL
Description: (§2) FIG. 2. Monoclonal antibodies targeting the Metalloprotease-Cleavage Sites of CD95L (MCSCs). A. Left panel: The extracellular region of CD95L encompassing amino acid residues 102 to 281 can be cleaved by metalloproteases at different sites. Arrows represent putative cleavage site in CD95L sequence. Right panel: Using three peptides (peptides 1, 2 and 3) covering most of the MCSCs of CD95L, we have generated monoclonal antibodies. Indicated peptides were injected in mice to generate monoclonal antibodies and three different hybridoma were selected regarding their ability to bind CD95L. According to their affinity for the indicated peptides (assessed using ELISA), the 3C7 epitope should cover the […] sequence (SEQ ID NO:24). […] The metalloprotease-cleaved fragment of Ig-CD95L (CD95L devoid of its released Ig domain of gp190) was monitored by immunoblotting. […] CD95L-expressing leukemic T cell 1A12 was incubated for 24 h with indicated antibodies ([…]) or the pan-MMP inhibitor GM6001 (10 μM) and the expression level of membrane-bound CD95L was assessed by flow cytometry. […]
(§3) We have generated different extracellular regions of CD95L fused to large domains including the Ig domain of the gp190 (LIF receptor). […] The privileged cleavage sites (^113EL^114 for MMPs and ^129KQ^130 for ADAM) were then determined from MS/MS sequencing of the resulting cleavage products. […]

CD95L cleavage by MMP2 = assay: Cleavage of recombinant Ig-CD95L by MMP2 in vitro, cleaved fragment monitored by immunoblotting; type: biochemical, Homo sapiens; settings: Ig-CD95L 100 ng pre-incubated 15 min with antibody (100 pg/mL), then MMP 1 h
Sequence of CD95L cleavage by MMP2 (P48023 103-281 limits assumed): as above
Description: as §2, §3

[2] = tested on: s-CD95L release from 1A12 cells; assay: Metalloprotease-cleaved CD95L dosed by ELISA in supernatants of 1A12 cells; type: cell-based; settings: 1A12 cells treated 24 hours, vs isotype (anti-myc 9E10 mAb) control
Description: as §1

[3] = tested on: triple negative breast cancer cells MDA-MB-231; assay: Boyden chamber assay, migration of MDA-MB-231 cells towards 1A12 (CD95L+) cells; type: cell-based; settings: 1A12 (CD95L+) cells in lower chamber, mAb 10 pg/mL, 24 hours
Description: (§4) FIG. 3. Antibody targeting the Metalloprotease-Cleavage Sites of CD95L (MCSCs) blocks the non-apoptotic functions of CD95L without affecting its apoptotic ones. A. WR19L (CD95L−) or 1A12 (CD95L+) cells were placed in the lower chamber of a Boyden chamber assay in the presence of the indicated mAbs ([…]). Triple negative breast cancer cell MDA-MB-231 was added to the upper part of the chamber and cell migration due to the gradient of metalloprotease-cleaved CD95L was evaluated after 24 hours by fixing and staining (Giemsa) migrating cells covering the lower side of the porous membrane. Left panel: Pictures of the Giemsa-stained MDA-MB-231 cells that migrated to the lower side of the membrane in the presence of WR19L (CD95L−) or 1A12 (CD95L+) cells and with isotypic (9E10) or anti-MCSC (3C7) monoclonal antibody. Right panel: Giemsa-stained MDA-MB-231 cells were lysed and absorbance was measured at a wavelength of 560 nm. Values represent the means and SEM of three independently performed experiments. **p<0.01 as calculated using two-tailed Mann-Whitney test. B. Upper panel: Jurkat cells are sensitive to the CD95-mediated apoptotic signal. […] Cell death was monitored by measuring the drop of mitochondrial transmembrane potential (Δψm). […] Cell death was monitored by measuring the drop of mitochondrial transmembrane potential (Δψm). […]

Jurkat cells = assay: Jurkat cell death induced by mAb-pre-treated 1A12 cells, drop of mitochondrial transmembrane potential (DIOC6); type: cell-based; settings: 1A12 cells pre-treated 24 hours with 10 μg/mL mAb, then 4 hours with Jurkat cells
Description: as §4

| Molecule | Expression level of membrane-bound CD95L [1] | Cleavage of CD95L by MMP3 in vitro (CD95L cleavage by MMP3) | Cleavage of CD95L by MMP2 in vitro (CD95L cleavage by MMP2) | Concentrations of s-CD95L in supernatant [2] | Generation of s-CD95L promoting migration of MDA-MB-231 cells [3] | Apoptotic function of membrane-bound CD95L (Jurkat cells) |
| --- | --- | --- | --- | --- | --- | --- |
| 9F5: Monoclonal antibody targeting Metalloprotease-Cleavage Sites of CD95L; light chain SEQ ID NO:18, heavy chain SEQ ID NO:19 (antibody, listed as Mus musculus, V domains shown) VH: QVQLQQSGAELAKPGASVKMSCKASGYTFTTYWMHWVKQRPGQDLEWIGYINPRNGYTEYNQNFKDKATLTADKSSTTAFMQLSSLTSEDSALYYCAVDLGYWGQGTLVTVSA VL: DIVMTQSPSSLAMSVGQKVTMNCKSSQSLLSSRNQKTYLAWYQQKPGQSPKLLVYFTSTRASGVPDRFIGSGGTDFTLTISSVQAEDLALYYCQQHYNTPWTFGGGTKLEIK | did not alter | efficiently abrogated the cleavage | efficiently abrogated the cleavage | – | – | – |
| 3C7: Monoclonal antibody targeting Metalloprotease-Cleavage Sites of CD95L; light chain SEQ ID NO:16, heavy chain SEQ ID NO:17 (antibody, listed as Mus musculus, V domains shown) VH: QVQLQQSGAELAKPGASVKMSCKTSGYTFTSYWMHWVKQRPGQGLEWIGYINPNTGYTEYIQRFRDKATLTADKSSGTAYMQLSSLTSEDSAVYYCAVDLGYWGQGTLVTVSA VL: DIVMTQSPSSLAMSVGQKVTMSCKSSQSLLSSRTQKHYLAWYQQKPGQSPKLLVYFTSTRESGVPDRFIGSGSGTDFTLTISSVQAEDLALYYCKQHYNTPWTFGGGTKLEIK | augmentation of m-CD95L similar to that observed with the broad spectrum MMP inhibitor GM6001 | efficiently abrogated the cleavage | efficiently abrogated the cleavage | significantly reduced | inhibited | did not prevent the apoptotic function |
